B8: FliF (natural protein)
chain: MSATASTATQPKPLEWLNRLRANPRIPLIVAGSAAVAIVVAMVLWAKTPDYRTLFSNLSDQDGGAIVAQLTQMNIPYRFANGSGAIEVPADKVHELRLRLAQQGLPKGGAVGFELLDQEKFGISQFSEQVNYQRALEGELARTIETLGPVKSARVHLAMPKPSLFVREQKSPSASVTVTLEPGRALDEGQISAVVHLVSSAVAGLPPGNVTLVDQSGHLLTQSNTSGRDLNDAQLKFANDVESRIQRRIEAILSPIVGNGNVHAQVTAQLDFANKEQTEEHYSPNGDASKATLRSRQLNISEQVGAGYPGGVPGALSNQPAPPNEAPIATPPTNQQNAQNTPQTSTSTNSNSAGPRSTQRNETSNYEVDRTIRHTKMNVGDIERLSVAVVVNYKTLADGKPLPLTADQMKQIEDLTREAMGFSDKRGDTLNVVNSPFSAVDNTGGELPFWQQQSFIDQLLAAGRWLLVLVVAWILWRKAVRPQLTRRVEEAKAAQEQAQVRQETEEAVEVRLSKDEQLQQRRANQRLGAEVMSQRIREMSDNDPRVVALVIRQWMSNDHE
notes: FliF, Salmonella enterica, transmembrane protein that forms the MS ring; also called MS ring; source: Salmonella SJW1368, pTrc99A-based plasmid, in DDM-solubilised membranes

What was measured:
[1] = biological target: T1, His-St-FliP (Salmonella FliP with a hexahistidine tag inserted between Gln-22 and Leu-23) (Salmonella enterica, UniProt P54700 22-245); experiment: pull-down; copurification from Salmonella SJW1368 co-expressing His-FliP with other export gate proteins; membranes solubilised with 1% DDM; Ni affinity, then anti-FLAG M2 affinity (eluted with FLAG peptide), then SEC on Superdex 200 10/300; SDS-PAGE with CBB; settings: partners not purified
T1 construct: FliP, Salmonella enterica, 25-kDa transmembrane protein; mature form studied; the signal peptide (Met-1 to Gln-22) is cleaved during membrane insertion; tag LHHHHHH inserted between Gln-22 and Leu-23; Hexameric ring in SEC peak 2; also called His-FliP; FliP6 ring; source: Salmonella SJW1368, membranes solubilised with 1% DDM or 1% LMNG; purified (Ni-NTA, SEC); not shown: His6 (LHHHHHH), internal …
T1 sequence: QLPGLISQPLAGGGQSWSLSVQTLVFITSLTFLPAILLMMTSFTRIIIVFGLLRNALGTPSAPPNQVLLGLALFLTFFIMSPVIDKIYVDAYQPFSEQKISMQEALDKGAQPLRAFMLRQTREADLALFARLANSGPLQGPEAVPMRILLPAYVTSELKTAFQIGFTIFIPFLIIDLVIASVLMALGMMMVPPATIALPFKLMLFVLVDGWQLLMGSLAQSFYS

[2] = biological target: the molecule itself; experiment: crystal structure; Tm-FliPP, 2.4 Å, SAD phasing with a Se-Met derivative; 2 tetramers in the asymmetric unit
[3] = biological target: the molecule itself; experiment: SEC; Ni-purified His-FliP or FliO/His-FliP complexes (wild type and mutants) on Superdex 200 10/300; 20 mM Tris-HCl pH 8.0, 300 mM NaCl, 2 mM EDTA, 5% glycerol, 0.1% DDM
[4] = biological target: B8; experiment: pull-down; Ni affinity copurification with FliG-His from SJW1368 co-expressing FlhA, FlhB, FliF, FliG-His, FliO, FliP, HA-FliQ and FliR-FLAG; membranes solubilised with 1% DDM; settings: partners not purified
[5] = biological target: T2, FlhA (Salmonella enterica, UniProt P40729 1-692); experiment: SEC; Ni-purified FlhA/FliF/FliG-His complex on Superdex 200 10/300 (DDM); main peak examined by negative-stain EM; settings: both partners purified
T2 construct: FlhA, Salmonella enterica, transmembrane export gate protein; source: Salmonella SJW1368, pTrc99A-based plasmid, in DDM- or LMNG-solubilised membranes; co-purified
T2 sequence: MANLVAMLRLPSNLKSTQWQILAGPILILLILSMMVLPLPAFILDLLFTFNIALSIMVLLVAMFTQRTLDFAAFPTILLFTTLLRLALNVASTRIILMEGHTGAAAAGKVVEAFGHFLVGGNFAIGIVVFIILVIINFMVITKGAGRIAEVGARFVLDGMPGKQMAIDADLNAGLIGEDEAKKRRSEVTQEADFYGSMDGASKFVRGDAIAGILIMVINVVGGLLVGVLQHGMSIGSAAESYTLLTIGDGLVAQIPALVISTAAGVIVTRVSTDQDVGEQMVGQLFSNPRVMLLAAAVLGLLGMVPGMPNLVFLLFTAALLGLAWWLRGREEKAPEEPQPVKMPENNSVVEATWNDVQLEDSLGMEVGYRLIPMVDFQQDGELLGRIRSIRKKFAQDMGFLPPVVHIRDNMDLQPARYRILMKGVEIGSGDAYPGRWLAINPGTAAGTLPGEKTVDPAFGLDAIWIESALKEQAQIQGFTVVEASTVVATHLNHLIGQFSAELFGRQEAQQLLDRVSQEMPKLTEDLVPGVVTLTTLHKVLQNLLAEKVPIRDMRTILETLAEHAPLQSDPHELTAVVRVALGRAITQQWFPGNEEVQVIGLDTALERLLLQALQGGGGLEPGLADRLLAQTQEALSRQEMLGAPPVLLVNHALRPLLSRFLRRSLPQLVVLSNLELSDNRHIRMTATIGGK

[6] = biological target: the molecule itself; experiment: negative-stain electron microscopy with 2D class averaging; purified SEC peak fractions, 1.0% uranyl acetate, 100 kV; autocorrelation analysis for the rotational symmetry of the FliP ring

B1: FliR-FLAG (natural protein)
chain: MIQVTSEQWLYWLHLYFWPLLRVLALISTAPILSERAIPKRVKLGLGIMITLVIAPSLPANDTPLFSIAALWLAMQQILIGIALGFTMQFAFAAVRTAGEFIGLQMGLSFATFVDPGSHLNMPVLARIMDMLAMLLFLTFNGHLWLISLLVDTFHTLPIGSNPVNSNAFMALARAGGLIFLNGLMLALPVITLLLTLNLALGLLNRMAPQLSIFVIGFPLTLTVGIMLMAALMPLIAPFCEHLFSEIFNLLADIVSEMPINNNP
notes: FliR, Salmonella enterica, transmembrane export gate protein; also called FLAG-FliR (as printed in the methods); source: Salmonella SJW1368, pTrc99A-based plasmid, in DDM- or LMNG-solubilised membranes; co-purified (Ni-NTA, anti-FLAG gel, SEC)
[1]
  stoichiometry N: ~2 copies of FliR per 6 copies of FliP

B2: Tm-FliPP (periplasmic domain of FliP of Thermotoga maritima) (domain or fragment)
chain: YNNAITPYLNKETGYQEMFQRVNTRIREFMINELKNHHNEDNVFMLAKNSGIEIAKIEEAPNAVLIPAFVLGELEVAFK
notes: FliP of Thermotoga maritima (printed 'T. maritia'), periplasmic domain between TM-2 and TM-3; the atomic model holds Thr-122 to Lys-188; the N-terminal 13 residues of the construct are invisible; also called FliPP of T. maritia; Tm-FliPP tetramer; source: expression and purification described previously [37]
[2]
  stoichiometry N: 4

B3: His-FliP(F137A) (natural protein)
chain: QLPGLISQPLAGGGQSWSLSVQTLVFITSLTFLPAILLMMTSFTRIIIVFGLLRNALGTPSAPPNQVLLGLALFLTFFIMSPVIDKIYVDAYQPFSEQKISMQEALDKGAQPLRAAMLRQTREADLALFARLANSGPLQGPEAVPMRILLPAYVTSELKTAFQIGFTIFIPFLIIDLVIASVLMALGMMMVPPATIALPFKLMLFVLVDGWQLLMGSLAQSFYS
notes: FliP, Salmonella enterica; mature form; signal peptide (Met-1 to Gln-22) cleaved; His tag inserted between Gln-22 and Leu-23; source: Salmonella SJW1368, co-expressed with FliO, DDM-solubilised membranes; purified (Ni-NTA, SEC); not shown: His6 (LHHHHHH), internal (after residue 22), kept
[3]
  stoichiometry N: 2

B4: His-FliP(F150A) (natural protein)
chain: QLPGLISQPLAGGGQSWSLSVQTLVFITSLTFLPAILLMMTSFTRIIIVFGLLRNALGTPSAPPNQVLLGLALFLTFFIMSPVIDKIYVDAYQPFSEQKISMQEALDKGAQPLRAFMLRQTREADLALAARLANSGPLQGPEAVPMRILLPAYVTSELKTAFQIGFTIFIPFLIIDLVIASVLMALGMMMVPPATIALPFKLMLFVLVDGWQLLMGSLAQSFYS
notes: FliP, Salmonella enterica; mature form; signal peptide (Met-1 to Gln-22) cleaved; His tag inserted between Gln-22 and Leu-23; also called His-FliP(F1507A) [sic]; source: Salmonella SJW1368, co-expressed with FliO, DDM-solubilised membranes; purified (Ni-NTA, SEC); not shown: His6 (LHHHHHH), internal (after residue 22), kept
[3]
  stoichiometry N: 2

B5: His-FliP(E178A) (natural protein)
chain: QLPGLISQPLAGGGQSWSLSVQTLVFITSLTFLPAILLMMTSFTRIIIVFGLLRNALGTPSAPPNQVLLGLALFLTFFIMSPVIDKIYVDAYQPFSEQKISMQEALDKGAQPLRAFMLRQTREADLALFARLANSGPLQGPEAVPMRILLPAYVTSALKTAFQIGFTIFIPFLIIDLVIASVLMALGMMMVPPATIALPFKLMLFVLVDGWQLLMGSLAQSFYS
notes: as for B3
[3]
  stoichiometry N: 2

B6: FlhB (natural protein)
chain: MAEESDDDKTEAPTPHRLEKAREEGQIPRSRELTSLLILLVGVCIIWFGGESLARQLAGMLSAGLHFDHRMVNDPNLILGQIILLIKAAMMALLPLIAGVVLVALISPVMLGGLIFSGKSLQPKFSKLNPLPGIKRMFSAQTGAELLKAVLKSTLVGCVTGFYLWHHWPQMMRLMAESPIVAMGNALDLVGLCALLVVLGVIPMVGFDVFFQIFSHLKKLRMSRQDIRDEFKESEGDPHVKGKIRQMQRAAAQRRMMEDVPKADVIVTNPTHYSVALQYDENKMSAPKVVAKGAGLIALRIREIGAEHRVPTLEAPPLARALYRHAEIGQQIPGQLYAAVAEVLAWVWQLKRWRLAGGQRPPQPENLPVPEALDFMNEKNTDG
notes: FlhB, Salmonella enterica, transmembrane export gate protein; its C-terminal cytoplasmic domain undergoes autocleavage between Asp-269 and Pro270 as printed; source: Salmonella SJW1368, pTrc99A-based plasmid, in DDM- or LMNG-solubilised membranes; co-purified
[1]
  stoichiometry N: ~2 copies of FlhB per 6 copies of FliP

B7: FliG-His (natural protein)
chain: MSNLSGTDKSVILLMTIGEDRAAEVFKHLSTREVQALSTAMANVRQISNKQLTDVLSEFEQEAEQFAALNINANEYLRSVLVKALGEERASSLLEDILETRDTTSGIETLNFMEPQSAADLIRDEHPQIIATILVHLKRSQAADILALFDERLRHDVMLRIATFGGVQPAALAELTEVLNGLLDGQNLKRSKMGGVRTAAEIINLMKTQQEEAVITAVREFDGELAQKIIDEMFLFENLVDVDDRSIQRLLQEVDSESLLIALKGAEPPLREKFLRNMSQRAADILRDDLANRGPVRLSQVENEQKAILLIVRRLAETGEMVIGSGEDTYV
notes: FliG, Salmonella enterica, C ring protein; also called His-FliG; source: Salmonella SJW1368, pTrc99A-based plasmid, in DDM-solubilised membranes; not shown: His tag, C-terminal, kept
[4]
  binding result: binds

## B8
[5]
  binding result: binds
[6]
  binding result: binds

Source: PMC5542437, “Assembly and stoichiometry of the core structure of the bacterial flagellar type III export gate complex” (PLoS Biology, 2017)
